Measured values published in patent publication US20120213794A1 (published 2012).

Target: human PCSK9 (proprotein convertase subtilisin-kexin type 9), wild type (UniProt Q8NBP7 31-692)
Assay: TR-FRET PCSK9-LDLR interaction inhibition

Chain of human PCSK9 (proprotein convertase subtilisin-kexin type 9), wild type (Q8NBP7 31-692): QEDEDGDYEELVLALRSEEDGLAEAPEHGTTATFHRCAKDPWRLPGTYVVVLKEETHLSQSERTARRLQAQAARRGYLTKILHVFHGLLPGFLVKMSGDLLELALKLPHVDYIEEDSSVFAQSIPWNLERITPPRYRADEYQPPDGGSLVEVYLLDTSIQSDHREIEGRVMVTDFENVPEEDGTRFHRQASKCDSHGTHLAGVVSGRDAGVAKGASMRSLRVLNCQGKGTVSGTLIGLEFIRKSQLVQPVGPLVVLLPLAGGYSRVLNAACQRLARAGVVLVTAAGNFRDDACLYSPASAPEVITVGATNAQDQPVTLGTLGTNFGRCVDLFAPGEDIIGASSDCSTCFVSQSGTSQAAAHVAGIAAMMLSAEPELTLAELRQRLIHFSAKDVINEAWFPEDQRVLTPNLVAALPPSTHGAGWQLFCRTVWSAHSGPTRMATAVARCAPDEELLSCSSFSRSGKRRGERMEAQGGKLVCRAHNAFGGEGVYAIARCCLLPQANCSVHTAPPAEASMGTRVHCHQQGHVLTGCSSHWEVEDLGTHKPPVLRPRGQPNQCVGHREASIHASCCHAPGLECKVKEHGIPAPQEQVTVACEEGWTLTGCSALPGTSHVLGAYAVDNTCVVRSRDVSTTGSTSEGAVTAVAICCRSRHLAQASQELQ

Row | Binder | IC50
1 | AX211 IgG2 (antibody, V domains shown) VH: QVQLLESGGGLVQPGGSLRLSCKASGYTFSRQGFTWVRQAPGKGLEWIGWIDPGNGGTRYNEKFKGKATISRDNSKNTLYLQMNSLRAEDTAVYYCARYRVGYSLDYWGQGTLVTVSS VL: EIVLTQSPATLSLSPGERATITCRASQYVGSYLNWYQQKPGQAPRLLIYDASNRATGIPARFSGSGSGTDFTLTISSLEPEDFAVYYCQVWDSSPPVVFGGGTKVEIK | 4.8 nM
2 | AX213 IgG2 (antibody, V domains shown) VH: EVQLLESGGGLVQPGGSLRLSCKASGYTFSRYGINWVRQAPGKGLEWIGRIDPGNGGTRYNEKFKGKATISRDNSKNTLYLQMNSLRAEDTAVYYCARANDGYSFDYWGQGTLVTVSS VL: EIVLTQSPATLSLSPGERATITCRASQYVGSYLNWYQQKPGQAPRLLIYDASNRATGIPARFSGSGSGTDFTLTISSLEPEDFAVYYCQVWDSSPPVVFGGGTKVEIKR | 4.9 nM
3 | AX114 IgG2 (antibody, V domains shown) VH: EVQLLESGGGLVQPGGSLRLSCKASGYTFSSYGMYWVRQAPGKGLEWIGWIDPGSGGTKYNEKFKGKATISRDNSKNTLYLQMNSLRAEDTAVYYCARERYGYYFDYWGQGTLVTVSS VL: EIVLTQSPATLSLSPGERATITCRASQYVGTYLNWYQQKPGQAPRLLIYDASNRATGIPARFSGSGSGTDFTLTISSLEPEDFAVYYCQVWDSSPPVAFGGGTKVEIK | 5.9 nM
4 | AX212 IgG2 (antibody, V domains shown) VH: QVQLLESGGGLVQPGGSLRLSCKASGYTFSSYSFSWVRQAPGKGLEWIGYIDPGSGGTKYNQKFQGKATISRDNSKNTLYLQMNSLRAEDTAVYYCARQRVGYSLDYWGQGTLVTVSS VL: EIVLTQSPATLSLSPGERATITCRASQYVGSYLNWYQQKPGQAPRLLIYDASNRATGIPARFSGSGSGTDFTLTISSLEPEDFAVYYCQVWDSSPPVVFGGGTKVEIK | 3.9 nM
5 | AX210 IgG2 (antibody, V domains shown) VH: QVQLLESGGGLVQPGGSLRLSCKASGYTFSSYSIYWVRQAPGKGLEWIGWIDPGNGGTRYNQKFQSKATISRDNSKNTLYLQMNSLRAEDTAVYYCARARVGYSLDYWGQGTLVTVSS VL: EIVLTQSPATLSLSPGERATITCRASQYVGSYLNWYQQKPGQAPRLLIYDASNRATGIPARFSGSGSGTDFTLTISSLEPEDFAVYYCQVWDSSPPVVFGGGTKVEIK | 4.9 nM
